Assay [1] addresses T1, CabRC core (PscA homodimer) in the CabRC complex (Chloracidobacterium thermophilum, UniProt G2LDR8).
T1 construct: gene Cabther_A2188; native complex from C. thermophilum membranes, Triton X-100, untagged; PscA homodimer with 11 TMHs each, insertion N440-H644; smaller form CabRCS without and larger form CabRCL with PscB and PscZ; with c-type cytochrome PscX; c-type cytochrome PscY; Reaction center subunit PscU; Reaction center subunit PscV; Reaction center subunit PscW
Kind of assay: cryo-EM structure ([…] Å CabRCS; […] Å CabRCL); HPLC of pigments. The class given is binding. The following applies: one transmembrane molecule in each PscA.

For assay [2], the target named is PscA (Chloracidobacterium thermophilum). The assay can be described thus: cryo-EM structure; CabRCS (smaller form, ten subunits), native complex purified from C. thermophilum membranes in Triton X-100; 2.22 Å; 20 mM Tris-HCl pH 7.6, 10 mM ascorbic acid, 0.03% Triton X-100.
The target of another assay is T2, PscB (Chloracidobacterium thermophilum, UniProt G2LDR7 1-179).
T2 construct: Only in the larger form CabRCL; also called PscB/CabRC
T2 sequence (looked up): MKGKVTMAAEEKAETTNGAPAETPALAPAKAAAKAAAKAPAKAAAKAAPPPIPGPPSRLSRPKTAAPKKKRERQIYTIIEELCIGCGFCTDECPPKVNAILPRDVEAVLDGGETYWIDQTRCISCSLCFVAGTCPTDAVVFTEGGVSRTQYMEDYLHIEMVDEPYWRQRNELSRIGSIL
Kind of assay: cryo-EM structure; CabRCL (larger form with PscB and PscZ), native complex purified from C. thermophilum membranes in Triton X-100; 2.61 Å global, cytoplasmic region ~3.5 to ~5.0 Å; 20 mM Tris-HCl pH 7.6, 10 mM ascorbic acid, 0.03% Triton X-100. The following applies: both partners purified.

With `CC(C)=CCC/C(C)=C/C=C/C(C)=C/C=C/C(C)=C/C=C/C=C(C)/C=C/C=C(C)/C=C/C=C(\C)CCC=C(C)C` [lycopene], the “cryo-EM structure (2.22 Å CabRCS; 2.61 Å CabRCL); HPLC of pigments” value in assay [1] is “we identified one transmembrane lycopene molecule in each PscA”. Take PscA (natural protein): in assay [2], the stoichiometry N (usually the number of molecules, sites or subunits per partner or assembly) stood at 2.

B1: PscZ (natural protein, Chloracidobacterium thermophilum, UniProt G2LHG2 1-60, looked up)
chain: MARTPEEIVKRYKEANIWLRHWKQQIGLAKDEEQREMFTQYYEERVQEIAALEEPYRAAL
notes: Only in the larger form CabRCL
As to B1, the binding result with PscB is “binds”.

(Values after PMC9751088, “Structure of the Acidobacteria homodimeric reaction center bound with cytochrome c” (Nature Communications, 2022).)
